Experimental data from patent US11123413B2, “Carbapenemases for use with antibiotics for the protection of the intestinal microbiome” (priority 2015, dated 2021).
Several values for one entry are separate records, joined by “and”; a condition that tells them apart may be missing. Equal values may be shown once.

What was measured:
[1] = KPC and NDM stability in mixed human chyme versus buffer (CENTA); type: in vitro ADME; conditions: 100 μM ZnSO4, 37° C., 80 ng/mL
Experimental: The stability of KPC and NDM in human chyme at 37° C. was evaluated by adding purified KPC or NDM (final concentration of 80 ng/mL) to mixed human chyme that contained equal volumes of each of five human chyme specimens collected from five different donors. ZnSO4 was added to the mixed chyme for a final concentration of 100 μM ZnSO4. Aliquots of the enzyme/chyme mixture were collected at 0, 30, 60, 120, 180, and 240 minutes of incubation and evaluated for beta-lactamase activity with a chromogenic assay using the CENTA reagent as the substrate. The biological activity of the enzymes in the mixed chyme was compared to the activity in buffer (HEPES buffer, 100 μM ZnSO4 pH 6.2).

[2] = Oral P2A and intravenous ceftriaxone in jejunal-fistulated dogs; type: in vivo, laboratory beagles; conditions: peroral P2A 2.5 mg/kg, intravenous ceftriaxone 30 mg/kg, omeprazole
Experimental: (§1) The ability of P2A to degrade ceftriaxone in the dog intestinal tract was evaluated using laboratory beagles that had permanent jejunal fistulas. The fistulas allowed the repeated collection of jejunal chyme specimens from these animals. Dogs were treated with peroral P2A (2.5 mg/kg) in a liquid formulation (PBS buffer), and/or intravenous ceftriaxone (30 mg/kg). A single dose of omeprazole (10 mg) was delivered orally to each dog prior to treatment with ceftriaxone and/or P2A to inhibit the HCl activity in the stomach to potentially reduce P2A degradation. Serum samples were collected and serum ceftriaxone levels quantified. Jejunal chyme samples were collected and ceftriaxone and P2A levels were quantified. Ceftriaxone levels in serum and chyme were measured using a plate diffusion method using ceftriaxone susceptible Micrococcus luteus TS504 as the test strain. P2A activity levels in chyme were determined spectrophotometrically using meropenem as a substrate. Meropenem hydrolysis was monitored at a wavelength of 297 nm.

[3] = Oral P2A and intravenous meropenem in jejunal-fistulated dogs; type: in vivo, laboratory beagles
Experimental: as §1, with “meropenem” for “ceftriaxone”, “(1” for “(2.5”, “mg/kg).” for “mg/kg). A single dose of omeprazole (10 mg) was delivered orally to each dog prior to treatment with ceftriaxone and/or P2A to inhibit the HCl activity in the stomach to potentially reduce P2A degradation.”, “Meropenem” for “Ceftriaxone”

E. coli (ATCC 25922) = assay: Antibiotic inactivation screening assay via E. coli growth (96 well plate, OD625); type: cell-based; conditions: 10 ng/ml or 100 ng/ml enzyme (FIG. 35)
[4] = Oral P2A and intravenous cefotaxime in jejunal-fistulated dogs; type: in vivo, laboratory beagles; conditions: peroral P2A 1 mg/kg, intravenous cefotaxime 60 mg/kg, omeprazole
Experimental: The ability of P2A to degrade cefotaxime in the dog intestinal tract was evaluated using laboratory beagles that had permanent jejunal fistulas. The fistulas allowed the repeated collection of jejunal chyme specimens from these animals. Dogs were treated with peroral P2A (1 mg/kg) in a liquid formulation (PBS buffer), and/or intravenous cefotaxime (60 mg/kg). A single dose of omeprazole (10 mg) was delivered orally to each dog prior to treatment with ceftriaxone and/or P2A to inhibit the HCl activity in the stomach to potentially reduce P2A degradation. Serum samples were collected and serum cefotaxime levels quantified. Jejunal chyme samples were collected and cefotaxime and P2A levels were quantified. Cefotaxime levels in serum and chyme were measured using a plate diffusion method using cefotaxime susceptible Micrococcus luteus TS504 as the test strain. P2A activity levels in chyme were determined spectrophotometrically using meropenem as a substrate. Meropenem hydrolysis was monitored at a wavelength of 297 nm.

[5] = P2A concentration estimate and specific activity in cell lysates (CENTA assay, P2A protein standard); type: biochemical; conditions: BLR (DE3) P2A Clone 1 lysate, replicates 1 and 2
Experimental: To achieve an estimate of the amount of P2A protein in each of the lysates, dilutions of the lysates (5 ul, 2.5 ul, 1.3 ul, and 0.63 ul) were evaluated on SDS/PAGE compared to dilutions of a purified P2A standard protein (2.0 ug, 1.0 ug, 0.5 ug, 0.25 ug, 0.13 ug). Based on the P2A protein band intensities, an estimate of the amount of P2A protein in each of the lysates was obtained. The biological activity of the P2A protein in the cell lysates under the different lysing conditions was evaluated using the CENTA chromogenic assay compared to the biological activity of the P2A protein standard. The biological activity was normalized based on the P2A protein concentration estimate and an estimated P2A specific activity was obtained. […] The P2A expression cassette without the leader will be used for future studies.
Based on the P2A protein band intensities, an estimate of the amount of P2A protein in each of the lysates was obtained. The biological activity of the P2A protein in these cell lysates was evaluated using the CENTA chromogenic assay compared to the biological activity of the P2A protein standard. The biological activity was normalized based on the P2A protein concentration estimate and an estimated P2A specific activity was obtained.

[6] = peak level in dog jejunum, meropenem 30 mg/kg IV + P2A 1 mg/kg PO, individual dogs
[7] = peroral P2A 1 mg/kg, intravenous meropenem 30 mg/kg

Molecule | time by which activity was lost / not detectable [1] [min] | ceftriaxone in jejunal chyme [2] | effect on serum levels of ceftriaxone [2] | jejunal P2A concentration at which meropenem was not detected ([3]; intestinal samples, dogs) | Meropenem [3, 6] | P2A (U/g) [3, 6] | effect on serum levels of meropenem [3, 7] | meropenem in jejunal chyme [3, 7] | activity against cephalosporins compared to SYN-004 or P4A (E. coli (ATCC 25922)) | cefotaxime in jejunal chyme [4] | effect on serum levels of cefotaxime [4] | % Activity Compared to P2A standard ([5]; induction 18 o/n) | P2A-lactamase Activity ([5]; induction 18 o/n) | % Activity Compared to P2A standard ([5]; induction 25 on) | P2A-lactamase Activity ([5]; induction 25 on) | % Activity Compared to P2A standard ([5]; induction 37 3 hrs) | P2A-lactamase Activity ([5]; induction 37 3 hrs)
NDM: New Delhi metallo-β-lactamase NDM-1; NDM-68 = product of strain STY-NP1602-68 (STII Δ35, N-terminal GQQMETG) (protein) GQQMETGDQRFGDLVFRQLAPNVWQHTSYLDMPGFGAVASNGLIVRDGGRVLVVDTAWTDDQTAQILNWIKQEINLPVALAVVTHAHQDKMGGMDALHAAGIATYANALSNQLAPQEGMVAAQHSLTFAANGWVEPATAPNFGPLKVFYPGPGHTSDNITVGIDGTDIAFGGCLIKDSKAKSLGNLGDADTEHYAASARAFGAAFPKASMIVMSHSAPDSRAAITHTARMADKLR | ≤ 30 |  |  |  |  |  |  |  |  |  |  |  |  |  |  |  | 
P2A: broad spectrum carbapenemase, class B metallo-enzyme requiring zinc, SEQ ID NO: 37; P2A-21 = product of strain SYT-PP0602-21 (protein) ETGTISISQLNKNVWVHTELGYFNGEAVPSNGLVLNTSKGLVLVDSSWDNKLTKELIEMVEKKFQKRVTDVIITHAHADRIGGITALKERGIKAHSTALTAELAKNSGYEEPLGDLQTITSLKFGNTKVETFYPGKGHTEDNIVVWLPQYQILAGGCLVKSAEAKDLGNVADAYVNEWSTSIENVLKRYGNINSVVPGHGEVGDKGLLLHTLDLLK |  | degraded ceftriaxone | does not reduce serum levels of ceftriaxone | at least 0.5 U/g | 0 ug/ml (2×) and 2.0 ug/ml | 0.5 U/g and 0.2 U/g and 80 U/g | does not reduce serum levels of meropenem | degraded meropenem | not as active against the cephalosporins, cefozolin, cefoperazone, cefepime, and ceftazidime | degraded cefotaxime | does not reduce serum levels of cefotaxime | 103% and 156% | 0.21 mg/mL and 0.16 mg/mL | 148% and 135% | 0.30 mg/mL and 0.27 mg/mL | 131% and 182% | 0.13 mg/mL and 0.18 mg/mL
